Measured values: patent publication US20260250381A1

Tests used:
human TREM2 (human) [1] = target: T1, human TREM2 (human) (UniProt Q9NZC2); assay: 1st screen, 110 nM Ab
T1 sequence (looked up): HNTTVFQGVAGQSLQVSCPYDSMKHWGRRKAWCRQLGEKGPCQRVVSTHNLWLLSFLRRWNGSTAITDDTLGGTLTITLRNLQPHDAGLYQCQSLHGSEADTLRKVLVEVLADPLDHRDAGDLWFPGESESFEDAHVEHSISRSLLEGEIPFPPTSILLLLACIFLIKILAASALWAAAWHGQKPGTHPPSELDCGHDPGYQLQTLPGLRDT

human TREM2 (human) [2] = target: T1, human TREM2 (human); assay: 2nd screen, 100 nM Ab

B1: 6E7 variant V66 (antibody, V domains shown)
VH: EVQLVQSGAEVKKPGESLKISCKGSGTSFTSYWIAWVRQMPGKGLEWMGIIYPGDSDTRYSPSFQGQVTISADKSISTAYLQWSSLKASDTAMYFCARQRTFYYDSSDYFDYWGQGTLVTVSS
VL: DIQMTQSPSSVSASVGDRVTITCRASQGISSWLAWYQQKPGKAPKLLIYAASSLQNGVPSRFSGSGSGTDFTLTISSLQPEDFATYFCQQADSFPRTFGQGTKLEIK
Binding Signal (fold over 6E7 parental antibody) (human TREM2 (human) [1]): 0.25 fold | Binding Signal (fold over 6E7 parental antibody) (human TREM2 (human) [2]): 0.74 fold

B2: 6E7 variant V67 (antibody, V domains shown)
VH: EVQLVQSGAEVKKPGESLKISCKGSGYSFTSYWIAWVRQMPGKGLEWMGMIYPGDSDTRYSPSFQGQVTISADKSISTAYLQWSSLKASDTAMYFCARQRTFYYDSSDYFDYWGQGTLVTVSS
VL: DIQMTQSPSSVSASVGDRVTITCRASQGISSWLAWYQQKPGKAPKLLIYAASSLQNGVPSRFSGSGSGTDFTLTISSLQPEDFATYFCQQADSFPRTFGQGTKLEIK
Binding Signal (fold over 6E7 parental antibody) (human TREM2 (human) [1]): 0.8 fold | Binding Signal (fold over 6E7 parental antibody) (human TREM2 (human) [2]): 0.84 fold

B3: 6E7 variant V68 (antibody, V domains shown)
VH: EVQLVQSGAEVKKPGESLKISCKGSGYSFTSYWIAWVRQMPGKGLEWMGIIYPGDSDTRYSPSFQGQVTISADKSISTAYLQWSSLKASDTAMYFCARQRTFRYDSSDYFDYWGQGTLVTVSS
VL: DIQMTQSPSSVSASVGDRVTITCRASQGISSWLAWYQQKPGKAPKLLIYAASSLQNGVPSRFSGSGSGTDFTLTISSLQPEDFATYFCQQADSFPRTFGQGTKLEIK
Binding Signal (fold over 6E7 parental antibody) (human TREM2 (human) [1]): 0.44 fold | Binding Signal (fold over 6E7 parental antibody) (human TREM2 (human) [2]): 0.43 fold

B4: 6E7 variant V69 (antibody, V domains shown)
VH: EVQLVQSGAEVKKPGESLKISCKGSGYSFTSYWIAWVRQMPGKGLEWMGIIYPGDSDTRYSPSFQGQVTISADKSISTAYLQWSSLKASDTAMYFCARQRTFYYDSSDYFDYWGQGTLVTVSS
VL: DIQMTQSPSSVSASVGDRVTITCRASQGISSYLAWYQQKPGKAPKLLIYAASSLQNGVPSRFSGSGSGTDFTLTISSLQPEDFATYFCQQADSFPRTFGQGTKLEIK
Binding Signal (fold over 6E7 parental antibody) (human TREM2 (human) [1]): 0.41 fold | Binding Signal (fold over 6E7 parental antibody) (human TREM2 (human) [2]): 0.4 fold

B5: 6E7 variant V70 (antibody, V domains shown)
VH: EVQLVQSGAEVKKPGESLKISCKGSGYSFTSYWIAWVRQMPGKGLEWMGIIYPGDSDTRYSPSFQGQVTISADKSISTAYLQWSSLKASDTAMYFCARQRTFYYDSSDYFDYWGQGTLVTVSS
VL: DIQMTQSPSSVSASVGDRVTITCRASQGISSWLAWYQQKPGKAPKLLIYAAGSLQNGVPSRFSGSGSGTDFTLTISSLQPEDFATYFCQQADSFPRTFGQGTKLEIK
Binding Signal (fold over 6E7 parental antibody) (human TREM2 (human) [1]): 0.79 fold | Binding Signal (fold over 6E7 parental antibody) (human TREM2 (human) [2]): 0.84 fold

B6: 6E7 variant V71 (antibody, V domains shown)
VH: EVQLVQSGAEVKKPGESLKISCKGSGYSFTSYWIAWVRQMPGKGLEWMGIIYPGDSDTRYSPSFQGQVTISADKSISTAYLQWSSLKASDTAMYFCARQRTFYYDSSDYFDYWGQGTLVTVSS
VL: DIQMTQSPSSVSASVGDRVTITCRASQGISSWLAWYQQKPGKAPKLLIYAASSLQNGVPSRFSGSGSGTDFTLTISSLQPEDFATYFCQQADSEPRTFGQGTKLEIK
Binding Signal (fold over 6E7 parental antibody) (human TREM2 (human) [1]): 0.37 fold | Binding Signal (fold over 6E7 parental antibody) (human TREM2 (human) [2]): 0.48 fold

B7: 6E7 variant V78 (antibody, V domains shown)
VH: EVQLVQSGAEVKKPGESLKISCKGSGYRFTSYWIAWVRQMPGKGLEWMGIIYPGDSDTRYSPSFQGQVTISADKSISTAYLQWSSLKASDTAMYFCARQRTFYYDSSDYFDYWGQGTLVTVSS
VL: DIQMTQSPSSVSASVGDRVTITCRASQGISSWLAWYQQKPGKAPKLLIYAASSLQNGVPSRFSGSGSGTDFTLTISSLQPEDFATYFCQQADSFPRTFGQGTKLEIK
Binding Signal (fold over 6E7 parental antibody) (human TREM2 (human) [1]): 0.86 fold | Binding Signal (fold over 6E7 parental antibody) (human TREM2 (human) [2]): 1.11 fold

B8: 6E7 variant V79 (antibody, V domains shown)
VH: EVQLVQSGAEVKKPGESLKISCKGSGYSFTSYWIAWVRQMPGKGLEWMGIIYPGDSDTNYSPSFQGQVTISADKSISTAYLQWSSLKASDTAMYFCARQRTFYYDSSDYFDYWGQGTLVTVSS
VL: DIQMTQSPSSVSASVGDRVTITCRASQGISSWLAWYQQKPGKAPKLLIYAASSLQNGVPSRFSGSGSGTDFTLTISSLQPEDFATYFCQQADSFPRTFGQGTKLEIK
Binding Signal (fold over 6E7 parental antibody) (human TREM2 (human) [1]): 0.7 fold | Binding Signal (fold over 6E7 parental antibody) (human TREM2 (human) [2]): 0.52 fold

B9: 6E7 variant V80 (antibody, V domains shown)
VH: EVQLVQSGAEVKKPGESLKISCKGSGYSFTSYWIAWVRQMPGKGLEWMGIIYPGDSDTRYSPSFQGQVTISADKSISTAYLQWSSLKASDTAMYFCARQRNFYYDSSDYFDYWGQGTLVTVSS
VL: DIQMTQSPSSVSASVGDRVTITCRASQGISSWLAWYQQKPGKAPKLLIYAASSLQNGVPSRFSGSGSGTDFTLTISSLQPEDFATYFCQQADSFPRTFGQGTKLEIK
Binding Signal (fold over 6E7 parental antibody) (human TREM2 (human) [1]): 0.59 fold | Binding Signal (fold over 6E7 parental antibody) (human TREM2 (human) [2]): 0.5 fold

B10: 6E7 variant V81 (antibody, V domains shown)
VH: EVQLVQSGAEVKKPGESLKISCKGSGYSFTSYWIAWVRQMPGKGLEWMGIIYPGDSDTRYSPSFQGQVTISADKSISTAYLQWSSLKASDTAMYFCARQRTFYYDSSDYFDYWGQGTLVTVSS
VL: DIQMTQSPSSVSASVGDRVTITCRASQGISSLLAWYQQKPGKAPKLLIYAASSLQNGVPSRFSGSGSGTDFTLTISSLQPEDFATYFCQQADSFPRTFGQGTKLEIK
Binding Signal (fold over 6E7 parental antibody) (human TREM2 (human) [1]): 0.17 fold | Binding Signal (fold over 6E7 parental antibody) (human TREM2 (human) [2]): 0.23 fold

B11: 6E7 variant V82 (antibody, V domains shown)
VH: EVQLVQSGAEVKKPGESLKISCKGSGYSFTSYWIAWVRQMPGKGLEWMGIIYPGDSDTRYSPSFQGQVTISADKSISTAYLQWSSLKASDTAMYFCARQRTFYYDSSDYFDYWGQGTLVTVSS
VL: DIQMTQSPSSVSASVGDRVTITCRASQGISSWLAWYQQKPGKAPKLLIYAGSSLQNGVPSRFSGSGSGTDFTLTISSLQPEDFATYFCQQADSFPRTFGQGTKLEIK
Binding Signal (fold over 6E7 parental antibody) (human TREM2 (human) [1]): 0.3 fold | Binding Signal (fold over 6E7 parental antibody) (human TREM2 (human) [2]): 0.79 fold

B12: 6E7 variant V83 (antibody, V domains shown)
VH: EVQLVQSGAEVKKPGESLKISCKGSGYSFTSYWIAWVRQMPGKGLEWMGIIYPGDSDTRYSPSFQGQVTISADKSISTAYLQWSSLKASDTAMYFCARQRTFYYDSSDYFDYWGQGTLVTVSS
VL: DIQMTQSPSSVSASVGDRVTITCRASQGISSWLAWYQQKPGKAPKLLIYAASSLQNGVPSRFSGSGSGTDFTLTISSLQPEDFATYFCQQAVSFPRTFGQGTKLEIK
Binding Signal (fold over 6E7 parental antibody) (human TREM2 (human) [1]): 0.2 fold | Binding Signal (fold over 6E7 parental antibody) (human TREM2 (human) [2]): 0.29 fold

B13: 6E7 variant V90 (antibody, V domains shown)
VH: EVQLVQSGAEVKKPGESLKISCKGSGYSFTSEWIAWVRQMPGKGLEWMGIIYPGDSDTRYSPSFQGQVTISADKSISTAYLQWSSLKASDTAMYFCARQRTFYYDSSDYFDYWGQGTLVTVSS
VL: DIQMTQSPSSVSASVGDRVTITCRASQGISRWLAWYQQKPGKAPKLLIYAASSLQNGVPSRFSGSGSGTDFTLTISSLQPEDFATYFCQQADSFPRTFGQGTKLEIK
Binding Signal (fold over 6E7 parental antibody) (human TREM2 (human) [1]): 0.33 fold | Binding Signal (fold over 6E7 parental antibody) (human TREM2 (human) [2]): 0.36 fold

B14: 6E7 variant V91 (antibody, V domains shown)
VH: EVQLVQSGAEVKKPGESLKISCKGSGYSFTSYWIAWVRQMPGKGLEWMGIIYPDDSDTRYSPSFQGQVTISADKSISTAYLQWSSLKASDTAMYFCARQRTFYYDSSDYFDYWGQGTLVTVSS
VL: DIQMTQSPSSVSASVGDRVTITCRASQGISSWLAWYQQKPGKAPKLLIYAASSLQNGVPSRFSGSGSGTDFTLTISSLQPEDFATYFCQQADSFPRTFGQGTKLEIK
Binding Signal (fold over 6E7 parental antibody) (human TREM2 (human) [1]): 0.25 fold | Binding Signal (fold over 6E7 parental antibody) (human TREM2 (human) [2]): 0.61 fold

B15: 6E7 variant V92 (antibody, V domains shown)
VH: EVQLVQSGAEVKKPGESLKISCKGSGYSFTSYWIAWVRQMPGKGLEWMGIIYPGDSDTRYSPSFQGQVTISADKSISTAYLQWSSLKASDTAMYFCARQRTFHYDSSDYFDYWGQGTLVTVSS
VL: DIQMTQSPSSVSASVGDRVTITCRASQGISSWLAWYQQKPGKAPKLLIYAASSLQNGVPSRFSGSGSGTDFTLTISSLQPEDFATYFCQQADSFPRTFGQGTKLEIK
Binding Signal (fold over 6E7 parental antibody) (human TREM2 (human) [1]): 0.22 fold | Binding Signal (fold over 6E7 parental antibody) (human TREM2 (human) [2]): 0.65 fold

B16: 6E7 variant V93 (antibody, V domains shown)
VH: EVQLVQSGAEVKKPGESLKISCKGSGYSFTSYWIAWVRQMPGKGLEWMGIIYPGDSDTRYSPSFQGQVTISADKSISTAYLQWSSLKASDTAMYFCARQRTFYYDSSDYFDYWGQGTLVTVSS
VL: DIQMTQSPSSVSASVGDRVTITCRASQGISGWLAWYQQKPGKAPKLLIYAASSLQNGVPSRFSGSGSGTDFTLTISSLQPEDFATYFCQQADSFPRTFGQGTKLEIK
Binding Signal (fold over 6E7 parental antibody) (human TREM2 (human) [1]): 0.35 fold | Binding Signal (fold over 6E7 parental antibody) (human TREM2 (human) [2]): 1.05 fold

B17: 6E7 variant V94 (antibody, V domains shown)
VH: EVQLVQSGAEVKKPGESLKISCKGSGYSFTSYWIAWVRQMPGKGLEWMGIIYPGDSDTRYSPSFQGQVTISADKSISTAYLQWSSLKASDTAMYFCARQRTFYYDSSDYFDYWGQGTLVTVSS
VL: DIQMTQSPSSVSASVGDRVTITCRASQGISSWLAWYQQKPGKAPKLLIYAAASLQNGVPSRFSGSGSGTDFTLTISSLQPEDFATYFCQQADSFPRTFGQGTKLEIK
Binding Signal (fold over 6E7 parental antibody) (human TREM2 (human) [1]): 0.31 fold | Binding Signal (fold over 6E7 parental antibody) (human TREM2 (human) [2]): 0.87 fold

B18: 6E7 variant V6 (antibody, V domains shown)
VH: EVQLVQSGAEVKKPGESLKISCKGSGYSFTSMWIAWVRQMPGKGLEWMGIIYPGDSDTRYSPSFQGQVTISADKSISTAYLQWSSLKASDTAMYFCARQRTFYYDSSDYFDYWGQGTLVTVSS
VL: DIQMTQSPSSVSASVGDRVTITCRASQGISSWLAWYQQKPGKAPKLLIYAASSLQNGVPSRFSGSGSGTDFTLTISSLQPEDFATYFCQQADSFPRTFGQGTKLEIK
Binding Signal (fold over 6E7 parental antibody) (human TREM2 (human) [1]): 0.2 fold | Binding Signal (fold over 6E7 parental antibody) (human TREM2 (human) [2]): 0.56 fold

B19: 6E7 variant V7 (antibody, V domains shown)
VH: EVQLVQSGAEVKKPGESLKISCKGSGYSFTSEWIAWVRQMPGKGLEWMGIIYPGDSDTRYSPSFQGQVTISADKSISTAYLQWSSLKASDTAMYFCARQRTFYYDSSDYFDYWGQGTLVTVSS
VL: DIQMTQSPSSVSASVGDRVTITCRASQGISSWLAWYQQKPGKAPKLLIYAASSLQNGVPSRFSGSGSGTDFTLTISSLQPEDFATYFCQQADSFPRTFGQGTKLEIK
Binding Signal (fold over 6E7 parental antibody) (human TREM2 (human) [1]): 0.11 fold | Binding Signal (fold over 6E7 parental antibody) (human TREM2 (human) [2]): 0.32 fold
